The text below walks through data of US20190248902A1 (published 2019).

Changes are numbered by the printed parent chain.

B1: 4B3 (antibody, V domains shown)
VH: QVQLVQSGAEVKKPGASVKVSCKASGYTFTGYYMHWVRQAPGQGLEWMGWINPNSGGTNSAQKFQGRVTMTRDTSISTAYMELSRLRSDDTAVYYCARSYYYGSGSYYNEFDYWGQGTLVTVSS
VL: SYELTQPPSVSVSPRQTVSITCSGDKLGDKYACWYQQKPGQSPVLVIYQDRKRPSGIPERFSGSNSGNTATLTISGTQAMDEADYYCQAWDNNTVIFGGGTKLTVL
notes: mAb
B2: 60D2 (antibody, V domains shown)
VH: EVQLVESGGGLVQPGGSLRLSCGASGFTFSSYSMNWVRQAPGKGLEWVSYISESSNIIYYTDSVKGRFTISRDNAMNSLYLQMNSLRDEDTAVYYCARADTPMVLYFYGMDVWGQGTTVTVSS
VL: B1 VL with R15G, V18A, D25N, C33S, K38R, R51N, A79T, I96V
notes: mAb
B3: 65E9 (antibody, V domains shown)
VH: not shown
VL: B1 VL with R15G, V18A, D29N, A32D, C33Y, N93S, I96V
notes: mAb
B4: 59F2 (antibody, V domains shown)
VH: B2 VH with E53G, M76K
VL: B1 VL with R15G, V18A, C33S, K38R, R51N, I96V
notes: mAb
B5: 32D6 (antibody, V domains shown)
VH: QVQLVESGGGVVQPGRSLRLSCAASGFTFSSYGMHWVRQAPGKGLEWVTVIWHDGSNAYYADSVKGRFTISRDNSKNTLYLQMNSLRAEDTAVYYCARENSSSYYFDYWGQGTLVTVSS
VL: DIQMTQSPSSLSTSVGDRVTITCRASQNIISYLNWYQQKPGKAPKLLMYVASRLQSGVPSRFSGSGSGTDFTLTISSLQAEDFATYYCQQSYSTPYTFGGGTKVAIK
notes: mAb
B6: 50G9 (antibody, V domains shown)
VH: QVQLVESGGGVVQPGRSLRLSCAASGFIFSSYGMHWVRQAPGKGLEWVAVISQDGIIRYYADSVKGRFTISRDNSKNTLYLQMNSLRAEDTAVYYCARDVKQWLVRTYGMDVWGQGTTVTVSS
VL: SYELTQPPSVSVSPGQTASITCSGDKLGDKYACWYQQKPGQSPVLVIYQDSKRPSGIPERFSGSNSGNTATLTISGTQARDEAEYYCQARNSRRGVFGGGTRLTVL
notes: mAb
B7: 10G6 (antibody, V domains shown)
VH: QVQLVQSGAEVKKPGASVKVSCKASGYTFTAYHMHWVRQAPGQGLEWMGWINPNNNGTNYAQKFQGRVTMTRDTSISTAYMELSRLRSDDTAVYYCGRDVTSSFDYWGQGTLVTVSS
VL: DIQMTQSPSSVSASVGDRVTITCRASQGISKWLAWYQQKPGKAPKILIYAAYSLQSGVPARFSGSGSGTDFTLTIRSLQPEDFATYYCQQANSFPFTFGPGTKVDIK
notes: mAb
B8: 53F7 (antibody, V domains shown)
VH: B7 VH with A31G, S84N, R87T, G97A, V100G
VL: B7 VL with T5S, K31R, K45N, I46L, Y52S, A60S, R76S, T85I
notes: mAb
B9: 29E2 (antibody, V domains shown)
VH: QVQLVESGGGVVQPGRSLRLSCAASGFTFSNCVMHWVRQAPGKGLEWVAVIWYDGSNKYYADSVKGRITISRDNSKNTLYLQMNSLRAEDTAVYYCAREEYSSGWYDYGMDVWGQGTTVTVSS
VL: DIQMTQSPSSLSASVGDRVTITCRASQAIRNDLGWYQQRPGKAPKRLIYAASSLQSGVPSRFSGSGSGTEFILTISSLQPEDFATYYCLQHYNYPRSFGQGTKLEIK
notes: mAb
B10: 45B4 (antibody, V domains shown)
VH: B9 VH with N31D, I68F, E100R, W105L
VL: B9 VL with I21F, A28G, N31D, R39K, I72T, N93S, S97T, L104V
notes: mAb
B11: 6G6 (antibody, V domains shown)
VH: QVQLVQSGAEVRKPGASVKVSCKASGYTFTNYDINWVRQATGQGPEWMGWMHPNSGNTGYAKKFQGRVTMTRNTSISAAYMVLSSLRSEDTAVYYCALSSGWYYFDYWGQGTLVTVSS
VL: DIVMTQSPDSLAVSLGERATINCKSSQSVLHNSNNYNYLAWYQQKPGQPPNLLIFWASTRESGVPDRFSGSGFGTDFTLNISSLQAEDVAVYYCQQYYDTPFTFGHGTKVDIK
notes: mAb

The first test concerns the target T1, human ASGR-1 (wild type) (human, UniProt P07306 1-291).
T1 construct: also called wt ASGR1; huASGR-1
T1 sequence: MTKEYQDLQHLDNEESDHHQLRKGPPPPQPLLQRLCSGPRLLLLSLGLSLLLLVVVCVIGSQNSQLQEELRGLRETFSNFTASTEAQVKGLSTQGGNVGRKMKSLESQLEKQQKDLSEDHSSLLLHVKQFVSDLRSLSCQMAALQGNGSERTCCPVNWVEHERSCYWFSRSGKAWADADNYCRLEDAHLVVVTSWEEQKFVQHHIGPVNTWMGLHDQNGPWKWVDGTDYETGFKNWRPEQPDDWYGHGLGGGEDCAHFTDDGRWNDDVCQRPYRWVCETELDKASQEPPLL
The experiment in a line: FACS, transfected CHO-S cells, mAb 5 ug/ml. The procedure:
(§1) The ability of human ASGR-1-specific, ligand competing antibodies to bind to the mutant hASGR-1 proteins was assessed by FACS as described above.
(§2) Antibodies were tested for binding to the individual mutant and wild type ASGR-1 constructs using normalized antibody concentrations (5 ug/ml). CHO—S cells transiently expressing the appropriate mutated or non-mutated antigen of interest were mixed with antibody sample or controls, incubated for 1 hour at 4° C., and then washed twice. Cells with bound antibody were then incubated with Alexa Fluor® 647 IgG Fc fragment-specific detection antibody and 7-AAD viability stain for 15 minutes at 4° C., washed once and resuspended in FACS buffer. Samples were analyzed using a BD Accuri™ Flow Cytometer and an Intellicyt HyperCyt Autosampler. As a negative control, supernatants and controls were also screened against CHO—S cells transfected with empty parental vector (referred to as mock). […] Because mutant hASGR-1 expression levels varied relative to each other, sample binding data for each construct was normalized for expression by dividing the binding data from an antibody not affected by the mutations (e.g., 65C12) by the binding values of each test antibody on a given mutant construct. Also, because the antibody binding affinities varied amongst the samples, the expression corrected data (above) was further normalized by comparing test antibody binding on each mutant construct to wild type hASGR-1. Identification of specific mutations that affected test antibody binding was performed by an interquartile range (IQR) analysis to determine statistical outliers. A mutation was identified as a “hit” if the calculated values were >3× the IQR (above the 3rd quartile/upper fence) for a given mutant construct. Although IQR analysis was used here to determine signifance and identify hits, one skilled in the art will recognize that a number of methods could be employed in order to normalize the data (eg. using epitope-tagged constructs or other ASGR-1-binding antibodies directed against non-CBD epitopes).
In general terms: Flow cytometry measures light scatter and fluorescence of single cells or particles in a stream.
As to B1, the “FACS Binding Geomean” value is 35600.
As for B2, the “FACS Binding Geomean” value was 29600.
The same measure, in the same setting: to B3 belongs 29600; to B4, 27900.
Still for that read-out and setting: to B5 belongs 36100; to B6, 37300; to B7, 43100.
In the case of B8, the “FACS Binding Geomean” value is 43500.
The same measure, in the same setting: to B9 belongs 25800; to B10, 30400.
As for B11, the “FACS Binding Geomean” value is 47600.

The next test concerns the target T2, human ASGR-1 mutant construct H203 (human, UniProt P07306 1-291).
T2 construct: Arg/Glu scanning: non-arginine residues were changed to arginine; Transiently expressed on CHO-S cells
T2 sequence: T1 sequence with H203R
The test is described as follows: FACS, transfected CHO-S cells, mAb 5 ug/ml. On the procedure:
as §1, §2
On to B1, for which the “FACS Binding Geomean” value is 1700.
On the same count and under the same terms, under B2 stands 1370; under B3, 1470; under B4, 1350.
On the same count and under the same terms, to B5 belongs 13500.
Still for that read-out and setting: under B6 stands 1510; under B7, 18200; under B8, 18100.
As to B9, the “FACS Binding Geomean” value amounted to 15100.
Turning to B10, the “FACS Binding Geomean” value was 14000.
The same measure, in the same setting: to B11 belongs 20500.

The target in another test is T2, human ASGR-1 mutant construct H203. The experiment in a line: FACS ratio: H203 normalized value / wt normalized value. The procedure:
as §1, §2
B1: the “Normalization to wt ASGR1 Binding” value came out at 9.63.
For the molecule B2, the “Normalization to wt ASGR1 Binding” value was 9.95.
On to B3, for which the “Normalization to wt ASGR1 Binding” value came to 9.25.
Turning to B4, the “Normalization to wt ASGR1 Binding” value was determined as 9.53.
Same read-out and setting: under B5 stands 1.23.
Same read-out and setting: to B6 belongs 11.4; to B7, 1.09.
On the same count and under the same terms, under B8 stands 1.1.
As for B9, the “Normalization to wt ASGR1 Binding” value is 0.786.
Same read-out and setting: to B10 belongs 0.995.
As for B11, the “Normalization to wt ASGR1 Binding” value came out at 1.07.

The target in a further test is T1, human ASGR-1 (wild type). The test is described as follows: FACS ratio: 65C12 geomean / this mAb geomean. On the procedure:
(§3) Mutant hASGR-1 variants were constructed such that non-arginine residues were changed to arginine and where wild type arginine residues were mutated to glutamic acid. Each mutant hASGR-1 sequence was then cloned into a mammalian expression vector and used to transiently transfect CHOs cells. The ability of human ASGR-1-specific, ligand competing antibodies to bind to the mutant hASGR-1 proteins was assessed by FACS as described above.
(§4) Antibodies were tested for binding to the individual mutant and wild type ASGR-1 constructs using normalized antibody concentrations (5 ug/ml). CHO—S cells transiently expressing the appropriate mutated or non-mutated antigen of interest were mixed with antibody sample or controls, incubated for 1 hour at 4° C., and then washed twice. Cells with bound antibody were then incubated with Alexa Fluor® 647 IgG Fc fragment-specific detection antibody and 7-AAD viability stain for 15 minutes at 4° C., washed once and resuspended in FACS buffer. Samples were analyzed using a BD Accuri™ Flow Cytometer and an Intellicyt HyperCyt Autosampler. As a negative control, supernatants and controls were also screened against CHO—S cells transfected with empty parental vector (referred to as mock). […] Because mutant hASGR-1 expression levels varied relative to each other, sample binding data for each construct was normalized for expression by dividing the binding data from an antibody not affected by the mutations (e.g., 65C12) by the binding values of each test antibody on a given mutant construct. Also, because the antibody binding affinities varied amongst the samples, the expression corrected data (above) was further normalized by comparing test antibody binding on each mutant construct to wild type hASGR-1. Identification of specific mutations that affected test antibody binding was performed by an interquartile range (IQR) analysis to determine statistical outliers. A mutation was identified as a “hit” if the calculated values were >3× the IQR (above the 3rd quartile/upper fence) for a given mutant construct.
Take B1: the “Expression Normalization to mAb 65C12” value came to 1.58.
On the same count and under the same terms, under B2 stands 1.89; under B3, 1.89.
Consider B4, for which the “Expression Normalization to mAb 65C12” value was determined as 2.01.
With B5, the “Expression Normalization to mAb 65C12” value was 1.55.
Turning to B6, the “Expression Normalization to mAb 65C12” value is 1.5.
For B7, the “Expression Normalization to mAb 65C12” value was 1.3.
Same read-out and setting: under B8 stands 1.29.
B9: the “Expression Normalization to mAb 65C12” value was 2.18.
The same measure, in the same setting: under B10 stands 1.85.
Same read-out and setting: under B11 stands 1.18.

The target of a further test is T2, human ASGR-1 mutant construct H203. The experiment in a line: FACS ratio: 65C12 geomean / this mAb geomean. On the procedure:
as §3, §4
In the case of B1, the “Expression Normalization to mAb 65C12” value was 15.2.
As to B2, the “Expression Normalization to mAb 65C12” value was determined as 18.8.
In the case of B3, the “Expression Normalization to mAb 65C12” value amounted to 17.5.
On the same count and under the same terms, to B4 belongs 19.1; to B5, 1.91; to B6, 17.1.
The same measure, in the same setting: to B7 belongs 1.41.
With B8, the “Expression Normalization to mAb 65C12” value came to 1.42.
On to B9, for which the “Expression Normalization to mAb 65C12” value was found to be 1.71.
Still for that read-out and setting: under B10 stands 1.84.
Still for that read-out and setting: to B11 belongs 1.26.
